A word on the Kd: it is the concentration at which binding is half-saturated. A lower Kd goes with a tighter complex.

The values that follow come from patent US20200095340A1.

First the molecules themselves.
B1: anti-DLL3 trispecific protein 2E01 (protein, part only; not given: anti-CD3 and anti-albumin domains, part only)
chain, part: EVQLVESGGGLVQPGGSLTLSCVASGSTSSINAMGWYRRAPFKQGELPAGISPDGTKAYADSAKVRFTISRDNAKNSVYLQMNSLRAEDTAVYYCYYFHTVCGTSMGYWGQGTLVTVSSGGGGSGGGSGGGGSGGGSHHHHHH
B2: anti-DLL3 trispecific protein 3H011 (protein, part only; not given: CD3 fragment and albumin sdAb, part only)
chain, part: EVQLVESGGGLVQPGGSLTLSCAASGSSVKFLSMAWYRQAPGKKRELVAGISADGSTVYIDSVKGRFTISRDNAKNSVYLQMNSLRAEDTAVYYCYAYRWPTRYTYWGQGTLVTVSSGGGGSGGGSGGGGSGGGSHHHHHH
B3: anti-DLL3 trispecific protein 4D09 (protein, part only; not given: CD3 binder and albumin binder, part only)
chain, part: EVQLVESGGGLVQPGGSLTLSCAASGSSVKFLSMAWYRQAPGKKRELVAGISADGSTDYILSVKGRFTISRDNAKNSVYLQMNSLRAEDTAVYYCYAYEWTTRYTYWGQGTLVTVSSGGGGSGGGSGGGGSGGGSHHHHHH
B4: anti-DLL3 trispecific protein 4E02 (protein, part only; not given: CD3 binder and albumin binder, part only)
chain, part: EVQLVESGGGLVQPGGSLTLSCAASGSQVSFLSMAWYRQAPGKKRELVAGISADGSTVYIDSVKGRFTISRDNAKNSVYLQMNSLRAEDTAVYYCYAYRWSTRYTYWGQGTLVTVSSGGGGSGGGSGGGGSGGGSHHHHHH
B5: anti-DLL3 trispecific protein 4D01 (protein, part only; not given: CD3 binder and albumin binder, part only)
chain, part: EVQLVESGGGLVQPGGSLTLSCAASGSSVRFLSMAWYRQAPGKKRELVAGISADGSTVYIDSVKGRFTISRDNAKNSVYLQMNSLRAEDTAVYYCYAYRWTTRRTYWGQGTLVTVSSGGGGSGGGSGGGGSGGGSHHHHHH
B6: anti-DLL3 trispecific protein 4B07 (protein, part only; not given: anti-CD3 fragment and anti-albumin sdAb, part only)
chain, part: EVQLVESGGGLVQPGGSLTLSCAASGSSVGFLSMAWYRQAPGKKRELVAGISADGSTVYIDSVKGRFTISRDNAKNSVYLQMNSLRAEDTAVYYCYAYRWTTRYTYWGQGTLVTVSSGGGGSGGGSGGGGSGGGSHHHHHH
B7: anti-DLL3 trispecific protein 3C03 (protein, part only; not given: anti-CD3 fragment and anti-albumin sdAb, part only)
chain, part: EVQLVESGGGLVQPGGSLTLSCAASGSSVRFLSMAWYRQAPGKKRELVAGISRDGSTVYIDSVKGRFTISRDNAKNSVYLQMNSLRAEDTAVYYCYAYRWTTRGTYWGQGTLVTVSSGGGGSGGGSGGGGSGGGSHHHHHH
B8: anti-DLL3 trispecific protein 4B011 (protein, part only; not given: CD3 fragment and albumin sdAb, part only)
chain, part: EVQLVESGGGLVQPGGSLTLSCAASGSSVTFLSMAWYRQAPGKKRELVAGISADGSTVYIDSVKGRFTISRDNAKNSVYLQMNSLRAEDTAVYYCYAYRWTTRGTYWGQGTLVTVSSGGGGSGGGSGGGGSGGGSHHHHHH
B9: anti-DLL3 trispecific protein 3F010 (protein, part only; not given: CD3 fragment and albumin sdAb, part only)
chain, part: EVQLVESGGGLVQPGGSLTLSCAASYSSVSRLSMAWYRQAPGKKRELVAGISADGSTVYIDSVKGRFTISRDNAKNSVYLQMNSLRAEDTAVYYCYAYRWTTRNTYWGQGTLVTVSSGGGGSGGGSGGGGSGGGSHHHHHH
B10: anti-DLL3 trispecific protein 4G01 (protein, part only; not given: CD3 binder and albumin binder, part only)
chain, part: EVQLVESGGGLVQPGGSLTLSCAASGSSVRFLSMAWYRQAPGKKRELVAGISADGSTVYIDSVKGRFTISRDNAKNSVYLQMNSLRAEDTAVYYCYAYRWPTRYTYWGQGTLVTVSSGGGGSGGGSGGGGSGGGSHHHHHH
B11: anti-DLL3 trispecific protein 4H011 (protein, part only; not given: anti-CD3 and anti-albumin domains, part only)
chain, part: EVQLVESGGGLVQPGGSLTLSCAASGSSVSRLSMAWYRQAPGKKRELVAGISVDGSTDYIDSVKGRFTISRDNAKNSVYLQMNSLRAEDTAVYYCYAYRWTTRLTYWGQGTLVTVSSGGGGSGGGSGGGGSGGGSHHHHHH
B12: anti-DLL3 trispecific protein 3C04 (protein, part only; not given: anti-CD3 and anti-albumin domains, part only)
chain, part: EVQLVESGGGLVQPGGSLTLSCAASGSHVSFLSMAWYRQAPGKKRELVAGISADGPTDYIDSVKGRFTISRDNAKNSVYLQMNSLRAEDTAVYYCYAYRWDTRYTYWGQGTLVTVSSGGGGSGGGSGGGGSGGGSHHHHHH
B13: anti-DLL3 trispecific protein 2E011 (protein, part only; not given: CD3 binder and albumin binder, part only)
chain, part: EVQLVESGGGLVQPGGSLTLSCVASGSTSSINAIGWYRRAPGKQRELVAGISSDGSSVYADSVKGRFTISRDNAKNSVYLQMNSLRAEDTAVYYCYYFRRVSGSSMRYWGQGTLVTVSSGGGGSGGGSGGGGSGGGSHHHHHH
B14: anti-DLL3 trispecific protein 2E05 (protein, part only; not given: CD3 fragment and albumin sdAb, part only)
chain, part: EVQLVESGGGLVQPGGSLTLSCVASGSPSSINAYGWYRRAPGKQRELVAGISSDGSKVYSDSVKGRFTISRDNAKNSVYLQMNSLRAEDTAVYYCYYFRTVSGSSMSYWGQGTLVTVSSGGGGSGGGSGGGGSGGGSHHHHHH
B15: anti-DLL3 trispecific protein 1D011 (protein, part only; not given: anti-CD3 and anti-albumin domains, part only)
chain, part: EVQLVESGGGLVQPGGSLTLSCVASGSTSSINAMAWYRRAPGKQRELVAGISSDNSKVYADSVKGRFTISRDNAKNSVYLQMNSLRAEDTAVYYCYYFRTVSGHSMRYWGQGTLVTVSSGGGGSGGGSGGGGSGGGSHHHHHH
B16: anti-DLL3 trispecific protein 1E011 (protein, part only; not given: anti-CD3 and anti-albumin domains, part only)
chain, part: EVQLVESGGGLVQPGGSLTLSCVASGNTSSINAMGWYRRAPGKQRELVAGISSDGSKVYYDSVKGRFTISRDNAKNSVYLQMNSLRAEDTAVYYCYYFRTVRGSSQRYWGQGTLVTVSSGGGGSGGGSGGGGSGGGSHHHHHH
B17: anti-DLL3 trispecific protein 2C02 (protein, part only; not given: CD3 binder and albumin binder, part only)
chain, part: EVQLVESGGGLVQPGGSLTLSCVASGSTSSINAVGWYRRAPGKQRELVAGISSDGSKVYVDSVKGRFTISRDNAKNSVYLQMNSLRAEDTAVYYCYYFRTVYGSSMRYWGQGTLVTVSSGGGGSGGGSGGGGSGGGSHHHHHH
B18: anti-DLL3 trispecific protein 2E010 (protein, part only; not given: anti-CD3 and anti-albumin domains, part only)
chain, part: EVQLVESGGGLVQPGGSLTLSCVASGSTSSINAMAWYRRAPGKQRELVAGISSDGSKVYADSVKGRFTISRDNAKNSVYLQMNSLRAEDTAVYYCYYFHTVSGSSMRYWGQGTLVTVSSGGGGSGGGSGGGGSGGGSHHHHHH
B19: anti-DLL3 trispecific protein 1F02 (protein, part only; not given: CD3 binder and albumin binder, part only)
chain, part: EVQLVESGGGLVQPGGSLTLSCVASGSTSSINAMAWYRRAPGKQRELAAGISSDQSKVYADSAKGRFTISRDNAKNSVYLQMNSLRAEDTAVYYCYYFRTVSGSSMSYWGQGTLVTVSSGGGGSGGGSGGGGSGGGSHHHHHH
B20: anti-DLL3 trispecific protein 1A012 (protein, part only; not given: CD3 binder and albumin binder, part only)
chain, part: EVQLVESGGGLVQPGGSLTLSCVASGSTSSINAMAWYRRAPGKQRELVAGISSDGSKVYSDSVKGRFTISRDNAKNSVYLQMNSLRAEDTAVYYCYYFRTVLGSSMRYWGQGTLVTVSSGGGGSGGGSGGGGSGGGSHHHHHH
B21: anti-DLL3 trispecific protein 1E09 (protein, part only; not given: CD3 fragment and albumin sdAb, part only)
chain, part: EVQLVESGGGLVQPGGSLTLSCVASGSTSSINAMAWYRRAPGKQRELVAGISSDGSKVYTDSVKGRFTISRDNAKNSVYLQMNSLRAEDTAVYYCYYFRTRSGSSMRYWGQGTLVTVSSGGGGSGGGSGGGGSGGGSHHHHHH
B22: anti-DLL3 trispecific protein 2G08 (protein, part only; not given: anti-CD3 and anti-albumin domains, part only)
chain, part: EVQLVESGGGLVQPGGSLTLSCVASGSTSYINAMGWYRRAPGKQRELVAGISSDGSKVYADSVKGRFTISRDNAKNSVYLQMNSLRAEDTAVYYCYYFRTVSGQSMGYWGQGTLVTVSSGGGGSGGGSGGGGSGGGSHHHHHH
B23: anti-DLL3 trispecific protein 1A05 (protein, part only; not given: CD3 fragment and albumin sdAb, part only)
chain, part: EVQLVESGGGLVQPGGSLTLSCVASGSPSSINAMGWYRRAPGKQRELSAGISSDGSKVYADSVKGRFTISRDNAKNSVYLQMNSLRAEDTAVYYCYYFRTVRGSSMSYWGQGTLVTVSSGGGGSGGGSGGGGSGGGSHHHHHH
B24: anti-DLL3 trispecific protein 1A011 (protein, part only; not given: anti-CD3 and anti-albumin domains, part only)
chain, part: EVQLVESGGGLVQPGGSLTLSCVASGSTSSINAIGWYRRAPGKQRELVAGISSDGSKVYIDSVKGRFTISRDNAKNSVYLQMNSLRAEDTAVYYCYYFRTVSGSSYRYWGQGTLVTVSSGGGGSGGGSGGGGSGGGSHHHHHH
B25: anti-DLL3 trispecific protein 2D012 (protein, part only; not given: anti-CD3 fragment and anti-albumin sdAb, part only)
chain, part: EVQLVESGGGLVQPGGSLTLSCVASGKTSSINAMGWYRRAPGKQRELVAGISSDGSKVYTDSVKGRFTISRDNAKNSVYLQMNSLRAEDTAVYYCYYFRTRSGSSMRYWGQGTLVTVSSGGGGSGGGSGGGGSGGGSHHHHHH
B26: anti-DLL3 trispecific protein 2H02 (protein, part only; not given: anti-CD3 and anti-albumin domains, part only)
chain, part: EVQLVESGGGLVQPGGSLTLSCVASGSTSSINAMAWYRRAPGKQRELAAGISSDGSKVYADSVKGRFTISRDNAKNSVYLQMNSLRAEDTAVYYCYYFHTVSGSSMRYWGQGTLVTVSSGGGGSGGGSGGGGSGGGSHHHHHH
B27: anti-DLL3 trispecific protein 1C010 (protein, part only; not given: CD3 binder and albumin binder, part only)
chain, part: EVQLVESGGGLVQPGGSLTLSCVASGSTSRINAMGWYRRAPGKQRELVAGVSSDGSKVYADSVKGRFTISRDNAKNSVYLQMNSLRAEDTAVYYCYYFRTVSGSSMSYWGQGTLVTVSSGGGGSGGGSGGGGSGGGSHHHHHH
B28: anti-DLL3 trispecific protein 1C01 (protein, part only; not given: anti-CD3 and anti-albumin domains, part only)
chain, part: EVQLVESGGGLVQPGGSLTLSCVASGSTSSINAMGWYRRAPGKQRELVAGISSDGSKVYRDSVKGRFTISRDNAKNSVYLQMNSLRAEDTAVYYCYYFRTVSGSSMGYWGQGTLVTVSSGGGGSGGGSGGGGSGGGSHHHHHH
B29: anti-DLL3 trispecific protein 2A011 (protein, part only; not given: anti-CD3 and anti-albumin domains, part only)
chain, part: EVQLVESGGGLVQPGGSLTLSCVASGSTSSINAIGWYRRAPGKQRELVAGISSDGSKVYSDSVKGRFTISRDNAKNSVYLQMNSLRAEDTAVYYCYYFRPVSGSSMRYWGQGTLVTVSSGGGGSGGGSGGGGSGGGSHHHHHH
B30: anti-DLL3 trispecific protein 1H012 (protein, part only; not given: anti-CD3 fragment and anti-albumin sdAb, part only)
chain, part: EVQLVESGGGLVQPGGSLTLSCVASGSTSSINAMGWYRRAPGKQRELVAGISSDGSKVYVDSVKGRFTISRDNAKNSVYLQMNSLRAEDTAVYYCYYFRTVSGSSMPYWGQGTLVTVSSGGGGSGGGSGGGGSGGGSHHHHHH

biotinylated human DLL3 protein expressed as a human IgG1 fusion protein (human), sequence (Q9NYJ7 other isoform, or with tags, fused parts or gaps): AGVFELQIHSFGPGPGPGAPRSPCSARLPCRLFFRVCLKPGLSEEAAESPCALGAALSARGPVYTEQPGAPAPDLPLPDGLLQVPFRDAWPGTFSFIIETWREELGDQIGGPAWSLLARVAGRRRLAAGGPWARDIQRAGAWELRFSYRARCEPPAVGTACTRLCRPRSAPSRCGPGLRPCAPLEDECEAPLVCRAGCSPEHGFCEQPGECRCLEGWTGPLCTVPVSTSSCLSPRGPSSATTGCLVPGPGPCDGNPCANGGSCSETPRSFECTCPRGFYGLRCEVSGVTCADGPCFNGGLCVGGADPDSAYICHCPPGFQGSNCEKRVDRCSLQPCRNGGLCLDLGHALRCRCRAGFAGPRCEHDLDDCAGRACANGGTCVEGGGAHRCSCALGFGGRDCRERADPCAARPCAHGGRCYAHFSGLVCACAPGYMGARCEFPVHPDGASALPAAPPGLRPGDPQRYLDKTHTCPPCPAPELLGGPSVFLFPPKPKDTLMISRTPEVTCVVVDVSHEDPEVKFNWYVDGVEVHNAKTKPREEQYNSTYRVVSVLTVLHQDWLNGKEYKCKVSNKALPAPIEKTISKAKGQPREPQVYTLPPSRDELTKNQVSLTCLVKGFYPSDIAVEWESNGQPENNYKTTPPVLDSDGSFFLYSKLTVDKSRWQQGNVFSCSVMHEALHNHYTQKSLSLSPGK

The test has as its target biotinylated human DLL3 protein expressed as a human IgG1 fusion protein (human) (UniProt Q9NYJ7). Put plainly: Octet BLI; biotinylated huDLL3-IgG1 fusion on streptavidin tips; single 50 nM; conditioned medium. For orientation: Biolayer interferometry detects binding as a change in optical thickness at a sensor tip.
B1 had a Kd of 4.1 nM.

Molecule B2 yielded a Kd of 2.7 nM.

The molecule B3 had a Kd of 4.7 nM.

Regarding B4, the Kd came to 3.8 nM.

Turning to B5, the Kd came out at 3.7 nM.

For the molecule B6, the Kd stood at 4.3 nM.

On to B7, for which the Kd was found to be 4.9 nM.

Molecule B8 gave a dissociation constant (Kd) of 3.9 nM.

Consider B9, for which the Kd is 4.4 nM.

The molecule B10 returned a Kd of 3.6 nM.

Turning to B11, the Kd came to 4.5 nM.

In turn, B12 registered a Kd of 4.5 nM.

In the case of B13, the Kd is 2.4 nM.

B14 returned a Kd of 3.9 nM.

The molecule B15 came in with an equilibrium dissociation constant (Kd) of 4.4 nM.

On to B16, for which the Kd came to 2.7 nM.

The molecule B17 registered a Kd of 4.1 nM.

B18 displayed a dissociation constant Kd of 4 nM.

With B19, the Kd amounted to 4 nM.

B20 registered a Kd of 4.9 nM.

In turn, B21 showed a Kd of 4.4 nM.

For B22, the Kd was 4.1 nM.

In turn, B23 had a Kd of 4 nM.

Consider B24, for which the Kd came to 3.7 nM.

As for B25, the Kd was 4.9 nM.

With B26, the Kd was determined as 4.4 nM.

On to B27, for which the equilibrium dissociation constant (Kd) is 2.5 nM.

B28 yielded a Kd of 4.3 nM.

Consider B29, for which the Kd is 4 nM.

The molecule B30 returned a Kd of 3.5 nM.
